Abundance fitness data for 34 variants are collected here from the Human Domainome abundance scans (Beltran et al. 2025).

± gives the uncertainty stated by the source.

B1: Friend leukemia integration 1 transcription factor, residues 116 to 197; numbered along this chain, Q01543 (parent)
chain: NMTTNERRVIVPADPTLWTQEHVRQWLEWAIKEYSLMEIDTSFFQNMDGKELCKMNKEDFLRATTLYNTEVLLSHLSYLRES

In the data set the parent is B1. The experiment in a line: abundance fitness (aPCA) (normalised: wild type 0, dead -1); higher = more abundant; growth selection in yeast, the domain comes from the species named. The following applies: Homo sapiens.
NMTTNERRVIVPADPTLWTQEHVRQWLEWAIKEYSLMEIDTSFFQNMDGKELCKMNNEDFLRATTLYNTEVLLSHLSYLRES [K57N]: the abundance fitness was -0.071 ± 0.12.

On to NMTTNERRVIVPADPTLWTQEHVRQWLEWAIKEYSLMEIDTSFFQNMDGKELCKMNREDFLRATTLYNTEVLLSHLSYLRES [K57R], for which the abundance fitness is -0.052 ± 0.072.

NMTTNERRVIVPADPTEWTQEHVRQWLEWAIKEYSLMEIDTSFFQNMDGKELCKMNKEDFLRATTLYNTEVLLSHLSYLRES [L17E]: the abundance fitness worked out at 0.087 ± 0.085.

On to NMTTNERRVIVPADPTLWTQCHVRQWLEWAIKEYSLMEIDTSFFQNMDGKELCKMNKEDFLRATTLYNTEVLLSHLSYLRES [E21C], for which the abundance fitness was -0.371 ± 0.22.

As for NMTTNERRVIVPADPTLWTQEHVRQWLEWAIKEYSLMEIDTSFFQNMDGKDLCKMNKEDFLRATTLYNTEVLLSHLSYLRES [E51D], the abundance fitness was -0.332 ± 0.28.

For NMTTNERRVIVPAIPTLWTQEHVRQWLEWAIKEYSLMEIDTSFFQNMDGKELCKMNKEDFLRATTLYNTEVLLSHLSYLRES [D14I], the abundance fitness was -0.467 ± 0.24.

Regarding NMTTNERRVIVPADPTLWTQEHVRQWLEWAIKEYSLMEIDTSFFQNMPGKELCKMNKEDFLRATTLYNTEVLLSHLSYLRES [D48P], the abundance fitness is -0.295 ± 0.094.

With NMTTNERRVIVPADPTLWTQEHVRQWLEWAIKEYSLMEIDASFFQNMDGKELCKMNKEDFLRATTLYNTEVLLSHLSYLRES [T41A], the abundance fitness is -0.035 ± 0.094.

Take NMTTNERRVIVPADPTLWTQEHVRQWLEWAIKEYSLMEIDRSFFQNMDGKELCKMNKEDFLRATTLYNTEVLLSHLSYLRES [T41R]: the abundance fitness is -0.079 ± 0.062.

NMTTNERRVIVPTDPTLWTQEHVRQWLEWAIKEYSLMEIDTSFFQNMDGKELCKMNKEDFLRATTLYNTEVLLSHLSYLRES [A13T]: the abundance fitness is 0.051 ± 0.077.

For NMTTNERRVIVPWDPTLWTQEHVRQWLEWAIKEYSLMEIDTSFFQNMDGKELCKMNKEDFLRATTLYNTEVLLSHLSYLRES [A13W], the abundance fitness is 0.023 ± 0.063.

For NMTTNERRVIVAADPTLWTQEHVRQWLEWAIKEYSLMEIDTSFFQNMDGKELCKMNKEDFLRATTLYNTEVLLSHLSYLRES [P12A], the abundance fitness was -0.186 ± 0.093.

NMTTNERRVIVRADPTLWTQEHVRQWLEWAIKEYSLMEIDTSFFQNMDGKELCKMNKEDFLRATTLYNTEVLLSHLSYLRES [P12R]: the abundance fitness was -0.053 ± 0.077.

On to NMTTNERRVIVPADPTLWTQEHVRQWLEWFIKEYSLMEIDTSFFQNMDGKELCKMNKEDFLRATTLYNTEVLLSHLSYLRES [A30F], for which the abundance fitness is -0.287 ± 0.13.

Turning to NMTTNERRVIVPADPTLWTQEHVRQWLEWLIKEYSLMEIDTSFFQNMDGKELCKMNKEDFLRATTLYNTEVLLSHLSYLRES [A30L], the abundance fitness was -0.186 ± 0.045.

For the variant NMTTNERRVIVPADPTLWTQEHVRQWLEWPIKEYSLMEIDTSFFQNMDGKELCKMNKEDFLRATTLYNTEVLLSHLSYLRES [A30P], the abundance fitness is -1.07 ± 0.26.

As to NMTTNERRVIVPADPTLWTQEHVRQWHEWAIKEYSLMEIDTSFFQNMDGKELCKMNKEDFLRATTLYNTEVLLSHLSYLRES [L27H], the abundance fitness is -0.463 ± 0.26.

Take NMTHNERRVIVPADPTLWTQEHVRQWLEWAIKEYSLMEIDTSFFQNMDGKELCKMNKEDFLRATTLYNTEVLLSHLSYLRES [T4H]: the abundance fitness is -0.115 ± 0.1.

As for NMTTNERRVIVPADPTLWTPEHVRQWLEWAIKEYSLMEIDTSFFQNMDGKELCKMNKEDFLRATTLYNTEVLLSHLSYLRES [Q20P], the abundance fitness is -0.454 ± 0.21.

Regarding NMTTNERRVIVPADPTLWTEEHVRQWLEWAIKEYSLMEIDTSFFQNMDGKELCKMNKEDFLRATTLYNTEVLLSHLSYLRES [Q20E], the abundance fitness was -0.195 ± 0.14.

As for NMTTNERRVIVPADPTLWTQEHVRQWLEWAIKEYSLMEIDTSFFQNMDGKELCKMNKEDFLRATFLYNTEVLLSHLSYLRES [T65F], the abundance fitness is -1.09 ± 0.37.

In the case of NMTTNERRVIVPADPTLWTQEHVRQWLEWAIKEYSLMEIDTMFFQNMDGKELCKMNKEDFLRATTLYNTEVLLSHLSYLRES [S42M], the abundance fitness is -0.11 ± 0.054.

For the variant NMTTNERRVIVPADPTLWTQEHVRQWLEWAIKEYSLMEIDTPFFQNMDGKELCKMNKEDFLRATTLYNTEVLLSHLSYLRES [S42P], the abundance fitness was -0.094 ± 0.073.

Take NMTTNERRVIVPADPTLWTQEHVRQWLEWAIKEYSLMEIDTSFFQNMDGKELCKMNKEDFNRATTLYNTEVLLSHLSYLRES [L61N]: the abundance fitness was -0.371 ± 0.12.

Turning to NMTTNERRVIVPADPTLWTQEHVRQWLEWAIKEYSLMEIDTSFFQNEDGKELCKMNKEDFLRATTLYNTEVLLSHLSYLRES [M47E], the abundance fitness was -1.08 ± 0.28.

Turning to NMTTNERRVIVPADPTLWTQEHVRQWLEWAIKEYSLMEIDTSFFQNMDGKELCKMNKEDFLRATTLDNTEVLLSHLSYLRES [Y67D], the abundance fitness is -0.027 ± 0.13.

Turning to NMTTNERRVIVPADPTLWTQEHVRQWLEWAIEEYSLMEIDTSFFQNMDGKELCKMNKEDFLRATTLYNTEVLLSHLSYLRES [K32E], the abundance fitness was 0.003 ± 0.082.

NMTTNERRVIVPADPTLWTQEHWRQWLEWAIKEYSLMEIDTSFFQNMDGKELCKMNKEDFLRATTLYNTEVLLSHLSYLRES [V23W]: the abundance fitness was -0.814 ± 0.1.

As for NMTTNERRVIVPADPTLWTQEHSRQWLEWAIKEYSLMEIDTSFFQNMDGKELCKMNKEDFLRATTLYNTEVLLSHLSYLRES [V23S], the abundance fitness is -0.538 ± 0.19.

For the variant NMTTNERRVIVPADPTLWTQEHVRQWLEWAVKEYSLMEIDTSFFQNMDGKELCKMNKEDFLRATTLYNTEVLLSHLSYLRES [I31V], the abundance fitness is -0.001 ± 0.058.

Turning to NMTTNERRVIVPADPTLWTQEHVRQWLEWAMKEYSLMEIDTSFFQNMDGKELCKMNKEDFLRATTLYNTEVLLSHLSYLRES [I31M], the abundance fitness was 0.08 ± 0.095.

Take NMTTNEYRVIVPADPTLWTQEHVRQWLEWAIKEYSLMEIDTSFFQNMDGKELCKMNKEDFLRATTLYNTEVLLSHLSYLRES [R7Y]: the abundance fitness was -0.125 ± 0.21.

Regarding NMTTNERRVIVPADPTLWTQEHVRQWLEWAIKEYSLMEIDTSFFQNMDGKELCKMNKEQFLRATTLYNTEVLLSHLSYLRES [D59Q], the abundance fitness is -0.087 ± 0.068.

As to NMTTNERRVIVPADPTLWTQEHVRQWLEWAIKEYSLMEIDTSFFQNMDGKELCKMNKEGFLRATTLYNTEVLLSHLSYLRES [D59G], the abundance fitness was -0.058 ± 0.075.
